# Literature values in publication PMC7077193.
# Target: eIF4E (Lactuca sativa)
substance,measurement,value
VPg (from UniProt P31999),Kd,300 nM
